According to publication PMC3575409, “Identification of a Novel Protein-Protein Interaction Motif Mediating Interaction of GPCR-Associated Sorting Proteins with G Protein-Coupled Receptors” (PLoS ONE, 2013):

What was measured:
Format in all cases: binding
GST-fused GPCR C-tails = test: GST-pull down, GPCR C-tails; details: twelve GPCR C-tails
From the text: (§1) cDNAs encoding the cytoplasmic C-tail of 14 GPCRs and 2 one-transmembrane receptors were cloned into the pGEX-2T prokaryotic expression vector downstream the GST sequence. The following pGEX constructs were engineered: pGEX-DOR encoding residues 314–372 of the δ-opioid receptor (referring to Swiss-Prot accession number U10504), pGEX-MOR encoding residues 334–400 of the µ-opioid receptor (L29301), pGEX-KOR encoding residues 326–380 of the κ–opioid receptor (U17298), pGEX-ORL1 encoding residues 315–370 of the opioid receptor-like 1 (X77130), pGEX-M1 encoding residues 414–460 of the muscarinic M1 acetylcholine receptor (X52068), pGEX-M2 encoding residues 436–466 of the muscarinic M2 acetylcholine receptor (M16404), pGEX- ADRB1 encoding residues 373–477 of the β1 adrenergic receptor (J03019), pGEX-ADRB2 encoding residues 322–413 of the β2 adrenergic receptor (P07550), pGEX-CALCR encoding residues 407–490 of the calcitonin receptor (L00587), pGEX-CNR2 encoding residues 295–360 of the cannabinoid type 2 receptor (P34972), pGEX-5HT7 encoding residues 380–445 of the 5-hydroxytryptamine 7 receptor (L21195), pGEX-H2 encoding residues 284–349 of the histamine 2 receptor (S57565), pGEX-TXA2 encoding residues 304–343 of the α isoform of the thromboxane A2 receptor (D38081), pGEX-FZ4 encoding residues 493–537 of the frizzled 4 receptor (AB032417), pGEX-TGFβ encoding residues 805–849 of the type III transforming growth factor b receptor (L07594), pGEX-IGF1 encoding residues 1268–1367 of the insulin growth factor I receptor (X04434). Free GST was produced by using the pGEX-4T3 expression vector without insert. The same plasmid was used to clone the cDNA encoding a central domain of GASP-1, corresponding to amino acids 380 to 1073, downstream the GST sequence. All these plasmids were transformed into the Escherichia coli BL21 strain and expression was induced using 1mM of isopropylthiogalactoside for 2 h at 37°C. Bacteria were then pelleted, resuspended in PBS supplemented with cOmplete protease inhibitors (Roche), lysed at 1.5 kbar using a basic Z cell disrupter (constant system) and finally the lysates were cleared by centrifugation (10,000g, 15 min, 4°C).
(§2) cDNAs encoding GASP-1 and GASP-2 were cloned into the pcDNA3 eukaryotic expression vectors. cDNAs encoding GASP-3, -6, -7, and -9 were subcloned into pcDNA3.1 vectors. All the clones were controlled by DNA sequencing. The in vitro production was performed by using the TNT Quick-coupled Transcription/Translation T7 kit (Promega) in presence of [^35S]-Methionine according to the instructions from the manufacturer.
GST-fusion proteins were immobilized on glutathione-coupled Sepharose beads (GE Healthcare) for 1 h at 4°C and incubated with [^35S]-labelled in vitro translated GASP proteins or their truncated or mutated forms in ice-cold binding buffer containing: 20 mM Tris-HCl pH 7.4, 150 mM NaCl, 1 mM EDTA, 1 mM DTT, 10% glycerol and 1% Triton X-100. The mixture was incubated for 1 h at 4°C with gentle rocking. The beads were washed five times with the same ice-cold buffer, resuspended in 30 µl SDS-PAGE sample buffer, incubated 10 min at 65°C, and pelleted for 60 s at 3000 g. The supernatants were then analyzed by SDS-PAGE, the gels were stained with Coomassie blue to visualize GST-fusion proteins, dried and analyzed using a Phosphor-imager (Personal Molecular Imager FX, Biorad) to visualize [^35S]-labelled GASPs. Quantification was performed with the Quantity One software (Biorad). GST-pull down quantification data were analyzed using GraphPad Prism 4.03 (GraphPad Software). Quantifications presented are means of at least three independent experiments. […]

GST-fused ADRB1 C-tail = test: GST-pull down, ADRB1 C-tail; details: percent of [35S]-GASP input; pH 7.4, 1 h at 4°C; three independent experiments
From the text: as §1, §2
(§3) GST-fusion proteins were immobilized on glutathione-coupled Sepharose beads (GE Healthcare) for 1 h at 4°C and incubated with [^35S]-labelled in vitro translated GASP proteins or their truncated or mutated forms in ice-cold binding buffer containing: 20 mM Tris-HCl pH 7.4, 150 mM NaCl, 1 mM EDTA, 1 mM DTT, 10% glycerol and 1% Triton X-100. The mixture was incubated for 1 h at 4°C with gentle rocking. The beads were washed five times with the same ice-cold buffer, resuspended in 30 µl SDS-PAGE sample buffer, incubated 10 min at 65°C, and pelleted for 60 s at 3000 g. The supernatants were then analyzed by SDS-PAGE, the gels were stained with Coomassie blue to visualize GST-fusion proteins, dried and analyzed using a Phosphor-imager (Personal Molecular Imager FX, Biorad) to visualize [^35S]-labelled GASPs. Quantification was performed with the Quantity One software (Biorad). GST-pull down quantification data were analyzed using GraphPad Prism 4.03 (GraphPad Software). Quantifications presented are means of at least three independent experiments.

[1] = tested on: GST-fused IGF1 (insulin growth factor I receptor) C-tail; test: GST-pull down, IGF1 C-tail
From the text: as §1, §2, §3

[2] = tested on: GST-fused TGFβ (type III transforming growth factor β receptor) C-tail; test: GST-pull down, TGFβ C-tail
From the text: as §1, §2, §3

GST-fused CALCR C-tail = test: GST-pull down, CALCR C-tail; details: percent of [35S]-GASP input; pH 7.4, 1 h at 4°C; three independent experiments
Description: (§4) cDNAs encoding the cytoplasmic C-tail of 14 GPCRs and 2 one-transmembrane receptors were cloned into the pGEX-2T prokaryotic expression vector downstream the GST sequence. […]
(§5) GST-fusion proteins were immobilized on glutathione-coupled Sepharose beads (GE Healthcare) for 1 h at 4°C and incubated with [^35S]-labelled in vitro translated GASP proteins or their truncated or mutated forms in ice-cold binding buffer containing: 20 mM Tris-HCl pH 7.4, 150 mM NaCl, 1 mM EDTA, 1 mM DTT, 10% glycerol and 1% Triton X-100. […] The supernatants were then analyzed by SDS-PAGE, the gels were stained with Coomassie blue to visualize GST-fusion proteins, dried and analyzed using a Phosphor-imager (Personal Molecular Imager FX, Biorad) to visualize [^35S]-labelled GASPs. Quantification was performed with the Quantity One software (Biorad). GST-pull down quantification data were analyzed using GraphPad Prism 4.03 (GraphPad Software). Quantifications presented are means of at least three independent experiments.

GST-fused M1 C-tail = test: GST-pull down, M1 C-tail; details: percent of [35S]-GASP input; pH 7.4, 1 h at 4°C; three independent experiments
From the text: as §1, §2, §3

GST-fused DOR C-tail = test: GST-pull down, DOR C-tail; details: percent of [35S]-GASP input; pH 7.4, 1 h at 4°C; three independent experiments
From the text: as §1, §2, §3

[3] = tested on: GST-fused H2 (histamine H2 receptor) C-tail; test: GST-pull down, H2 C-tail; details: percent of [35S]-GASP input; pH 7.4, 1 h at 4°C; three independent experiments
Description: as §4, §5

GST-fused TXA2 C-tail = test: GST-pull down, TXA2 C-tail; details: percent of [35S]-GASP input; pH 7.4, 1 h at 4°C; three independent experiments
Description: as §4, §5

[4] = percent of [35S]-GASP input, controls

B1: GASP-9: member of the second GASP subfamily, without GASP motif (protein)
chain: MSRVRDAGCVAAGIVIGAGAWYCVYKYTRGRDQTKKRMAKPKNRAVAGTGARARAGLRAGFTIDLGSGFSPPTPVRAEAEDRAQDEASALDTVGAEAVAPAASSAEAQSGAGSQAQEADGAGVGPKAESVVGAAMASAIAPPPGVTEALGAAEAPAMAGAPKVAEAPREAETSRAAVPPGTVVPTEAAAPTEVTEGPGVAAPTKVAEAPGVASPTEAAEAPVPATPTGAAAPTGAAESPGTSGSPRTAVVPGTSAAKKATPGAHTGAIPKATSATGAVPKGGGKGVTRSRNGGKGKGKKSKVEVDELGMGFRPGDGAAAAAAASANGGQAFLAEVPDSEEGESGWTDTESDSDSEPETQRRGRGRRPVAMQKRPFPYEIDEILGVRDLRKVLALLQKSDDPFIQQVALLTLSNNANYSCNQETIRKLGGLPIIANMINKTDPHIKEKALMAMNNLSENYENQGRLQVYMNKVMDDIMASNLNSAVQVVGLKFLTNMTITNDYQHLLVNSIANFFRLLSQGGGKIKVEILKILSNFAENPDMLKKLLSTQVPASFSSLYNSYVESEILINALTLFEIIYDNLRAEVFNYREFNKGSLFYLCTTSGVCVKKIRALANHHDLLVKVKVIKLVNKF
modifications: [35S]-methionine labelled
For B1, the “interaction with GPCR C-tails” value (GST-fused GPCR C-tails) was “very weak interactions”, the “GASP input retained by ADRB1 C-tail” value (GST-fused ADRB1 C-tail) was “around 2%” and the “interaction with IGF1 C-tail” value ([1]; non-GPCR control) was “No interaction was detected”. For the same molecule, the “GASP input retained by control IGF1 C-tail” value [1, 4] was “less than 1%”, the “interaction with TGFβ C-tail” value ([2]; non-GPCR control) was “No interaction was detected” and the “GASP input retained by control TGFβ C-tail” value [2, 4] was “less than 1%”. For the same molecule, the “GASP input retained by CALCR C-tail” value (GST-fused CALCR C-tail) was “around 2%”, the “GASP input retained by M1 C-tail” value (GST-fused M1 C-tail) was “around 2%” and the “GASP input retained by DOR C-tail” value (GST-fused DOR C-tail) was “around 2%”. The “GASP input retained by H2 C-tail” value [3] was “around 2%” and the “GASP input retained by TXA2 C-tail” value (GST-fused TXA2 C-tail) was “around 2%”.
